Measured values as given in IntAct's records for PubMed 30523278.

B1: Protein amnionless (Homo sapiens), Q9BXJ7 (parent)
chain: MGVLGRVLLWLQLCALTQAVSKLWVPNTDFDVAANWSQNRTPCAGGAVEFPADKMVSVLVQEGHAVSDMLLPLDGELVLASGAGFGVSDVGSHLDCGAGEPAVFRDSDRFSWHDPHLWRSGDEAPGLFFVDAERVPCRHDDVFFPPSASFRVGLGPGASPVRVRSISALGRTFTRDEDLAVFLASRAGRLRFHGPGALSVGPEDCADPSGCVCGNAEAQPWICAALLQPLGGRCPQAACHSALRPQGQCCDLCGAVVLLTHGPAFDLERYRARILDTFLGLPQYHGLQVAVSKVPRSSRLREADTEIQVVLVENGPETGGAGRLARALLADVAENGEALGVLEATMRESGAHVWGSSAAGLAGGVAAAVLLALLVLLVAPPLLRRAGRLRWRRHEAAAPAGAPLGFRNPVFDVTASEELPLPRRLSLVPKAAADSTSHSYFVNPLFAGAEAEA

Variants of: B1
Conditions: with cubn_human CUBN

effect of a mutation on the interaction	Variant
with no effect	S37A
disrupting interaction strength	N35Q;T41I
with no effect	S37A;T41I
disrupting interaction strength	N35Q
with no effect	T41I

Variants of: B1
Conditions: with cubn_human CUBN
Remark: another data set of the same source

effect of a mutation on the interaction	Variant
disrupting interaction strength	L59P
disrupting interaction strength	M69K
disrupting interaction strength	G254E
disrupting interaction strength	C234F
